Assay results from article PMC4649906, “Unraveling the molecular architecture of a G protein-coupled receptor/β-arrestin/Erk module complex” (Scientific Reports, 2015).
Each block holds one binder with its values, some of them ahead of it.

Molecular target: T1, human recombinant β-arrestin 1 (human, UniProt P49407 1-418)
T1 construct: β-arrestin 1, human, recombinant; Used as the prey (25 ng) in the GST pull-downs; source: bought: Gentaur (human recombinant)
Assay: pull-down; GST fusion protein immobilised on Glutathione Sepharose 4B beads; 25 ng human recombinant β-arrestin 1 as prey, with or without 0.5 mM peptide; 20 mM Hepes pH 7.9, 50 mM KCl, 2.5 mM MgCl2, 1 mM DTT, 10% glycerol, protease and phosphatase inhibitors; 1 hour at 4 °C; six washes; blot with anti-β-arrestin, quantified as the ratio of β-arrestin 1 over GST fusion
Conditions: both partners purified

T1 sequence (P49407 whole entry): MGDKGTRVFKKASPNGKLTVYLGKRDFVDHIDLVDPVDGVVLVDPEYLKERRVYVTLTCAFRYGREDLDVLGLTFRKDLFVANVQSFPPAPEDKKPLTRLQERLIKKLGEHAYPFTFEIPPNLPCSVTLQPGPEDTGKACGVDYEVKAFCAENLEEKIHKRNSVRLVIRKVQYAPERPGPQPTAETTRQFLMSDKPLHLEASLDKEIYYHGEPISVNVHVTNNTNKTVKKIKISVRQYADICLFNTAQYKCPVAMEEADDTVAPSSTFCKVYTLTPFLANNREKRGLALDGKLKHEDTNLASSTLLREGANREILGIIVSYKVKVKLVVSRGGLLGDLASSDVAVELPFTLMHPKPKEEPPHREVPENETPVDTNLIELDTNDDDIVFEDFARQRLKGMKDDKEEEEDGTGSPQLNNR

binding result: binds
B1: Raf1 interfering peptide (peptide)
peptide: KQRTVVNVRN
notes: stretch of Raf1 at the predicted interface with β-arrestin 1, within the RBD; Printed as H-KQRTVVNVRN-OH (free ends); Resuspended in H2O and used at 0.5 mM; source: synthetic peptide (Genecust laboratories)

binding result: binds
B2: ERK interfering peptide (peptide)
peptide: ISPFEHQTY
notes: stretch of ERK2 at the predicted interface with β-arrestin 1; Printed as H-ISPFEHQTY-OH (free ends); Resuspended in H2O + 5% DMSO and used at 0.5 mM; source: synthetic peptide (Genecust laboratories)
